From a protein production outcome set (Wang et al. 2014)

Assay: label from the status in PepcDB records
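Also: failed if final PepcDB status was selected cloned or expressed and not failed if soluble or beyond.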

Sequence	protein production
MTAALSSNFLLVAFFLYLAATIFYAVSIMGKKWRNKEGEMKGNRWGTFGYYSAIIALLFALGYFITRWMVAGFAPVSNMFEYVTFFGICIGLAFVIINAIYRSNILGLFTMPTVMLMIAYASVFPSEVAPLIPALQSNWLALHVTTVALGQGILAVSFASGLVYLIRTIDYSIQSWKTFWLEFILYSVITVVGFILITYTFQAMNYEAKFNYVNENDVEATMEYHLPPIVGPHEGQLISETGNQPLVNMPAWIKSDQLNTVIWSFLVGLVLYLLLYLVFRKPVGAILQPIVKRVSPQLVDEISYRAIAIGFPVFTLGGLIFAMIWAQIAWTRFWGWDPKEVWALITFLFYAAYLHLRLSKGWHGERSAWLCVIGFAIIMFNLVFVNLVIAGLHSYAGGM	failed
MTADGRGRIDAAFRGRLGRFVLDASLSVPATGVTAIFGPSGCGKTTIARCIAGLQRLSDGFCAIDGEIWQDGMAFRPAHRRPVGYVFQEPSLFPHLSVRGNLLYGAPKAAATSIGFDEVVELLGLTALLGRSPHRLSGGERQRVAIGRALLSQPRLLLMDEPLAALDRTTKNEILPFLERLHERLSLPVLYISHDMAEIERFADYLVLMERGRVVGAGPLHILQSDPALPLAYSRDAAVSIDGLVEAYDERYGLLTLAVNGGLLHVPSHRIAVGARQRLRIAASDVSIVRARPSESSILNILPARIVTQSPPGAGEVTIVLGLDSDGSGAPILSRISSRSRDLLGLSDGMAVFAQVKGVSLVRASGCAIGNMGPTAPGQLDHCSTQDTGVRSEAGTTAMPIDFAEIDPNRVAAILYRPQDDLDTLLADFAQDLVRAGERIGGIVQRNIKDGSGCQVGMQAIDLMTGREISICQPLGSGAMACKLDAAGLADASVAVASAIAQDVDLIVINKFSKQEAAGRGLRDELAGAIAAGIPVLTAVPEKCFEAWISFTGGIGTTLLCERQVIEAWWRDTSSRMKRMREDHDAVVAQCIEISGALPLVQRVVARQLVVTHDLPLDPERAEAEVVVRGVVERTNVEVLDGAADEADEAPDAGFPVGPERIERLPDIGPVPRRHEALQVEREVLSPDACLQRSAGERVDVFKEGKTKVGTVLVDRGDAELVEGPIVLELHEGAPVLVEMNVGVDLQTLYEIAVRGRVAGAERRCAIGLEAFAQRRPQRDVAFRIGGPKRDVFEPVKRFGTQPGIGKDRPVLCPAVRLDRRPLGDRSVLGPREPDAGAKGRKRQNDPEVAHIAPCQHRRTSPHLASARDALFGPREWISATYPPGNMTNAADRLLDV	failed
MTADRPLLGIFLMLGFCVLAPMGDALAKLLGGTMPTMQLLLVRFAIQAVILIPLVQATGRPWQLRGRLLRLTALRTLLHIVGIWAMFTALRYLPLADAIAIAFVMPFIMLLLGKYVLGEEVGPRRLGACIVGFAGTLLVIQPSFAEVGLPALLPLLVAVVFALFMLVTRQLAKDTDPIALQAVSGVMACVALTPVLLIGHAAGVEALTLVTASGTTLWLLLAIGVLGTAAHLLMTWSLRYAPSATLAPMQYLEIPVATAIGWLIFHDLPNGLAALGILITMAAGLYVILREQATARSAATETSG	failed
MTADSQTCFCVCTMAVTVTNNQAIDLSRAKAQGRAMAKPLTSHRPILAVSLKLGALVLFTSMSALIKVLSADFPAGEMVFFRSLFAIPVIILWLLARGELRQGLIVKKPMGHFWRGVLGTGAMGLTFTGLGLLPLPEVTAIGYATPIFTLILAALMLGETIRLVRIGAVALGLLGVLIMLWPRLGTGASLDQAATIGALCVLAATVARAFVQIHIRQLVQVDHAAAIVFYFSLTATLLSGLTAFFGWVTPTPEQAAILILTGLVGGVAQILVTSSYRFGQASMLAPYDYASMLFAIIIGYIWFDEWPTLVMLAGAMLVIAGNVVVIWRERQLGLERGKARSVTDPKG	failed
MTAEPAATSAPLSGPVAVIGCGWVGWPLARALLVAGAEVRGSATTPEKVAALRAEGVAATRLRLTPDTSPESDELTELLRGAHRLVLTVPPGRGPERERYAEYLSPVAQAAALHGVRQLIFTSSTGVYPNDPHVMTESDALATPDSPSPLLRAEAALAAAGVPLTVLRFAGLYGPGRPPGRFLAGRTEVGEGSAPVNLVHLDDCVGAVQHMLGGDFGGQTFNVCAAAHPLRRDFYPAAARALGLEAPSFAPHEGGGKIIGSEAFRAATGYHFRHDDPLSDLHTLGNGQGA	failed
MTAEQLIEKYKNPAIIGLGVIVALIAAFVFYKYNQSENNTVAQEEMYKAVFYFEQDSLELALKGDEAKGIRGLQEVADEYSGTKAGKLAAFYTGIIYLKQAKFQESIDYLEKFSSNEGILQARSWAAMGDAYSELNDLENAIKYYKKAADHKGNEQITPTYLMKLGLAYELNNNWKDASDAYDKIITDYPKSQDVADAKKYKAKAQAALSASE	failed
MTAETSQTLDRGLRVLKLLADTDHGLTVTELSHKLGVNRTVVYRLLATLEQHALVRRDLGGRARVGLGVLGLGRQVHPLVREAAMPALRALAEDIGATAHLTLVDGAEALAVAVVEPTWTDYHVAYRAGFRHPLERGAAGKAILAARQPSQPTGGEAVDDPGYTLTHGELEAGACGAAAPLLGVTGVEGSVGVVMLADVVPERVGERVKHAAREVAEALR	failed
MTAILLHNVAKSYRSYDHPWETLWEVFTKTRRHREWTALHPLSLEIAHGEVVGIVGTNGAGKSTLLKLIAGTLTPSAGDIRVNGHVAALLELGAGFHPDMTGRENVYLGASVMGLSSERVDRLYDGIVEFAGLGEFMDQPVKTYSSGMYMRLAFAVATAADPDVLILDEALSVGDGAFARKSFERIIGYKDAGKTILFCSHSLYQVEAICSRVLWLDHGRLVMDGEPARVVSAYAEFLGGGGEGCGTPDQPAPAAVAGSGVGRLTKVEVEADGVEGRKLTVRSGQTDLTVAVGFASDPALPPPSVGLTITGSNGWAVTSASTSNDGLTISRRPDGSGEVELSFPRFPLLKGAYWVNVFLLCEQGIHLYDRIEHAAELEVVQDGLEQGVVSLPRRWSVNGAPASAVSPTVPTVAAWLEHHHHHH	failed
MTAIYIGVMTGTSMDGVDFVAASFDPLHIHATLTLPFEPALRDELMALTLPGDNEIDRMGKADVGLAKLIGHGINMLIEQNHLDRHVIKAIGSHGQTIRHRPEHGFTLQIGDPHIITELTGIPVISDFRRRDMAAGGQGAPLVPAFHQAIFQHSTIHRVILNLGGIANVSLLPAGNPDGVYGFDTGPANILMDAWCERYTGHPYDENGNWAAYGQPIRALLERLQAHEFFSKKPPKSTGREDFNLDWLDDQLADWRNDELEYDELEDTPENVQATLLKLTTRAIKKAIYRSELDTGEVYVCGGGAYNSHLLEQLRWRLRKHHWSVQSTSVLGLSPTWVEATAFAWLAMRFMQQQSANLPSVTGAAGFRILGTITSV	failed
MTALFFENFAPGHFGRYGPRRVTREEIIAFASEYDPQPMHLDDHAANASMLKGMSGSGWHLSSLMMRMMYDGFIKDTASLGSPGVDEMRWMSPLRPGDDLLLDVEVIEARVSKSRPETGIVTFKCYVRNGHGQMLSEMVSPIIVKRRDAD	failed
MTALKPALPDYLGNIRIILTRTSHPANIGSAARAMKTMGLHRLTIVTPNLMATPMTENPPVFNPDDVQSFALPEESFILASGAADVLHNAEIVATLDEALADTTIACALTSRRREITAPLQTPRDLVPELLQAANRGEKVALVFGNETFGLSIEEVRACNRLMTINGNPDYFSLNLAQAVQVVCYEIFSQTDSPMTHLQQEDHAATHEQIKGMLAHMESVMDDIGFFNRRNGERLMRRMQSLFGRANTQTEDIDILRGFFNTVSHRIHKKD	failed
MTAPAICNTTETVHGIATSLGAVARQASLPRIVGTVVGITVLVVVALLVPVPTAVELRDWAKSLGAWFPLAFLLVHTVVTVPPFPRTAFTLAAGLLFGSVVGVFIAVVGSTASAVIAMLLVRATGWQLNSLVRRRAINRLDERLRERGWLAILSLRLIPVVPFAAINYAAGASGVRILSFAWATLAGLLPGTAAVVILGDAFAGSGSPLLILVSVCTGALGLTGLVYEIRNYRRQHRRMPGYDDPVREPALI	failed
MTAPIIITGVGKRIGYALAKHLLAQGHKVIGTYRSHYPSIDELQSLGATLIQCDFYDNAQVQNLIEQLSQYPKFRAIIHNASDWLADNSPEFAAHEVMQRMIQVHVNVPYQMNLALASKLQAGAEGEIGASDIIHITDYVAEKGSAKHIAYAASKAALDNLTLSFAAKLAPEVKVNAIAPAMILFNPSDDEAYRQKTLAKAILPKEAGNHEIIELMEYLLNSRYVTGRSHHVDGGRHLR	not failed
MTAPKITQKFNEVETKTTEILNKVLTDDRYFTVTSSFKQDATLGIEYYVTKVTPKTTEAKKSMVQKTFAYDFEKSIDPTSSYFGTTNRETVLSMAKRKRSVVAINASGWRSNGEVMGLQIKDGVLYKDYDAAGYTGAEACVFFDDGTMKVYGNREVDADILISKGARNSFAFGIWLVKDSKPRTAQMTTWADLNVKHPRQAIGQRSDGTLVIITVDGRSLRSSGITAYDMPSLFLSEGCINAFLLDGGGSSQTAVEGKYINNISDGIERAVVDTLTISYPDDDTDSRFFEVQEGRGLATSLNRRVEFIESKPTWNVLDLGFSPDGLIDNTAKFKKALSDLSEKGGGKLHFPKGTYLIGKQNTTSASEKIELPSNVSIVGERRSYTKLLRNPNHSLDELLRITDHNYIEGIEIDGNSSVNKSSCRLIAGGNIKSFKMKDCSLVNATDRGVSIHGIGKSITIEGMYISNIANECINVAEGEIIKLIDSEITFSGTALWVGNAANIFTKNNLAKSLKTFVRYKNSQNAICSGNIITNNIDRAIWGSVREAVFSDNVFKQCHSDYHLYFIQEDTGTNDLIVTGNSVYSDVEGTAFIRTPSDIDRRRVSGNVGNIPSLNLDLEHHHHHH	not failed
MTAREIAEHPFGTPTFTGRSWPLADVRLLAPILASKVVCVGKNYADHIAEMGGRPPADPVIFLKPNTAIIGPNTPIRLPANASPVHFEGELAIVIGRACKDVPAAQAVDNILGYTIGNDVSARDQQQSDGQWTRAKGHDTFCPVGPWIVTDLAPFDPADLELRTVVNGDVKQHARTSLMIHDIGAIVEWISAIMTLLPGDLILTGTPAGVGPIEDGDTVSITIEGIGTLTNPVVRKGKP	failed
MTATGLERSTANAQSLRNDSHQRSFHRFDGLTASSDITLEAVSSVDAIAAADWDACARSGTIVPHPDGAGGACTTATAAYNPFLSHAFFTALEQSGSASPRTGWGPRHLIAKHEGAIVGIVPCYLKSHSQGEYVFDRGWADAYERAGGNYYPKLQVSVPFTPATGPRLLIRDRIDSARVAGALANGLMALCDLSKASSVHVTFARESEWRFLAECGFLQRTDQQFHWHNAGYSSFDDFLATMNSRHRKGIKRERRDAVASGITIHHLTGADITEDAWDAFFEFYIETGSRKWGRPYLTREFYSLIGQSMSEDVLLVMAKRNGRWIAGAINFIGGDTLFGRHWGAIEHHPFLHFEVCYYQAIDFAITRGLKVVEAGAQGEHKIARGYLPQTTYSAHFIADPALRRAIADYLKRERMYVDEMGRELTEAGPFKKGNIADPA	failed
